Experiment [1] concerns the target T cell Immunoglobulin- and Mucin domain-containing molecule 3 (TIM3), human, on cells (human) (UniProt Q8TDQ0). Briefly: flow cytometry; cells not named in the table (Example 5 uses Pfeiffer cells). (In flow cytometry, cells or beads pass a laser one at a time.)
For experiment [2], the target named is T1, T cell Immunoglobulin- and Mucin domain-containing molecule 3 (TIM3), human, on cells (human, UniProt Q8TDQ0 22-301).
T1 construct: TIM3 as carried by human cell lines (Pfeiffer, Daudi, CMK) and by primary cells of patients; also called HAVCR2; KIM-3
T1 sequence: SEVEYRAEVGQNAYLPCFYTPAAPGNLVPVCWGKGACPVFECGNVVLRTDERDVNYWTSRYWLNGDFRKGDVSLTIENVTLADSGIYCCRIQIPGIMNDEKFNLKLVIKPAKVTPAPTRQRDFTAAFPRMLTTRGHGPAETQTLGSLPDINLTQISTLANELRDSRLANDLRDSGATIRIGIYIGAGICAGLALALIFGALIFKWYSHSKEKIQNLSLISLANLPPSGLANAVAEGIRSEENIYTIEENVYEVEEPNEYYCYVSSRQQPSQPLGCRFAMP
Briefly: flow cytometry, TIM3 expressing cell lines.

The target in experiment [3] is T1, T cell Immunoglobulin- and Mucin …. The experiment can be described thus: cell-based or functional assay.
Experiment [4] shares this target. Briefly: cell binding (flow cytometry), Pfeiffer cells.
Experiment [5] has the same target. Briefly: flow cytometry, PBMCs of AML patient 3, Blast population.
For experiment [6] the target is unchanged. The experiment can be described thus: flow cytometry, PBMCs of AML patient 3, CD34+CD38- population.
Experiment [7] has the same target. Briefly: flow cytometry; cells not named in the table (Example 5 uses Pfeiffer cells).

As to Mouse IgG2ak-Biotin (antibody), in experiment [1], the % Positive for TIM3 was found to be 0.49% and the GeoMean (Intensity of TIM3 binding) was 5.83.

Regarding Mouse IgG1k-Biotin (antibody), in experiment [1], the % Positive for TIM3 was 0.192% and the GeoMean (Intensity of TIM3 binding) is 5.06.

In experiment [1], Mouse IgG1k-BZAP (antibody) came in with a % Positive for TIM3 of 0.501% and a GeoMean (Intensity of TIM3 binding) of 5.33.

In experiment [1], IgG2bk-BZAP (antibody) came in with a % Positive for TIM3 of 0.195% and a GeoMean (Intensity of TIM3 binding) of 6.48.

B1: 33.1G12 (antibody, IgG1, V domains shown)
VH: EVQLQQSGPELVKPGASVKISCKASGYSFTGYLMNWVMQSHGKSLEWIGRINPYNGDIFYNQKFKDKATLTVDKSSSTAHMELRSLASEDSAVYYCARRDENFDYDNAMDYWGQGTSVTL
VL: DIVLTQSPASLAVSLGQRATISCRASESVDIYGNSFMHWYQQKPGQPPKLLIYRASNLESGIPARFRGSGSRTDFTLTIYPVEADDVATYYCQQSNEDPWTFGGGTKLEIK
notes: the printed VH ends early (…GQGTSVT)
In the case of B1, the binding result in experiment [2] was “binds”.

B2: 7.10F6 (antibody, IgG1, V domains shown)
VH: EVQLVESGGGLVQPGGSLKLSCAASGFIFSGYGMSWVRQTPDKRLELVAIINSNGGSVDYPDSVKGRVTISRDNAKNTLYLQMSSLKSEDTAMYYCARIYYRCMDYWGQGTSVTVSS
VL: NIMMTQSPSSLAVSAGEKVTMSCKSSQSLLYSSNQKNYLAWYQQKPGQSPKLLIYWASARESGVPDRFTGGGSGTDFTLTISSVQAEDLAVYYCHQYLSSYTFGGGTKLEIKR
notes: also called 7.10F6.1; 7.10F6.1-pure
Take B2: the “IFN-gamma release from activated CD4+ T cells (ELISA), antibody at 5 ug/ml” value in experiment [3] was more than 2 fold reduction. For the same molecule, the “percentage of cell binding” value in experiment [4] was found to be 92%. The molecule also displayed a percent binding in experiment [5] of 1.33%. The percent binding in experiment [6] worked out at 0.6%. For the same molecule, in experiment [7], the “% Positive for TIM3” value was 93.3% and the “GeoMean (Intensity of TIM3 binding)” value was determined as 142.

B3: 27.12A6 (antibody, V domains shown)
VH: EVKLVESGGGLVQPGGSLNLSCAASGFTFSSYTMSWVRQTPEKRLEWVAYISSGGHSTYFPDTVKGRFTISRDNAKNTLYLQMSSLKSEDTAVYYCARGGYGNYGPYYNMDYWGQGTSVTVSS
VL: NIMMTQSPSSLAVSAGEKVTMSCKSSQSVLYSSNQKNYLAWYQQKPGQSPKLLIYWASTRESGVPDRFTGSGSGTDFTLTINNVQAEDLAVYYCHQYLSSWTFGGGTKLEIK
notes: also called 27.12A6 (D2.2)
As to B3, the binding result in experiment [2] was “binds”.

B4: 6.16F9 (antibody, V domains shown)
VH: EVNLVESGGGLVQPGGSLKLSCAASGFTFSSYTMSWVRQSPEKRLEWVAYTSSSGASTYYPDTVKGRFTISRDNAKNTLHLQMSSLKSEDTAMYYCARGGYGNYGPYYALDYWGQGTSVTVSS
VL: NIMMTQSPSSLAVSAGEKVTMSCKSSQSVLYSSNQKNYLAWYQQKPGQSPKLLIYWASTRESGVPDRFTGSGSETDFTLTISSVQTEDLAVYYCHQYLSSWTFGGGTKLEIK
notes: also called 6.16F9 (D2.4)
On to B4, for which the binding result in experiment [2] is recorded as “binds”.

B5: 27.2H4 (antibody, IgG1, V domains shown)
VH: EVQLQQSGAELVRPGALVKLSCKASGFNIKHYYIHWVNQRPEQGLEWIGWIDPETGNTIYDPKFQGKASITADTSSSTAYLQLNSLTSEDTAVYCCARGWSYAMDYWGQGTSVIVSS
VL: DIVMTQSHKFMSTSVGDRVSITCKASQDVNTAVAWYQQKPGHSPKLLIYSASYHYTGVPDRFTGSGSGTDFTFTISSVQAEDLAVYYCQQHYSTPWTFGGGTKLEIK
notes: also called 27.2H4 (D2.1)
On to B5, for which the “percentage of cell binding” value in experiment [4] was found to be 75%. Further, the percent binding is 1.07% in experiment [5] and 0.69% in experiment [6].

B6: 1.7E10 (antibody, V domains shown)
VH: EVKLLESGGGLVQPGGSLKLSCAASGFDFSRYWMSWVRQAPGKGLEWIGEINPDSSTINYTPSLKDKFIISRDNAKNTLFLQMSKVRSEDTALYYCARPSYDGYYGYAMDYWGQGTSVTVSS
VL: DIVLTQSPASLAVSLGQRATISCRASESVDSYGKSFMHWYQQKPGQPPKLLIYRASNLESGIPARFSGSGSRTDFTLTINPVEADDVATYYCQQSNEDPYTFGGGTKLEIKR
As for B6, the “IFN-gamma release from activated CD4+ T cells (ELISA), antibody at 5 ug/ml” value in experiment [3] is more than 2 fold reduction.

B7: 1.7E10.12-Biotin (antibody, V domains shown)
VH: EVKLLESGGGLVQPGGSLKLSCAASGFDFSRYWMSWVRQAPGKGLEWIGEINPDSSTINYTPSLKDKFIISRDNAKNTLFLQMSKVRSEDTALYYCARPSYDGYYGYAMDYWGQGTSVTVSS
VL: DIVLTQSPASLAVSLGQRATISCRASESVDSYGKSFMHWYQQKPGQPPKLLIYRASNLESGIPARFSGSGSRTDFTLTINPVEADDVATYYCQQSNEDPYTFGGGTKLEIKR
notes: 1.7E10 (mouse IgG1,k) biotinylated with the EZ-link Sulfo NHS-LC-Biotinylated kit
For B7, in experiment [7], the “% Positive for TIM3” value is 99.2% and the “GeoMean (Intensity of TIM3 binding)” value is 354.

B8: 1.7E10.12-BZAP (antibody, V domains shown)
VH: EVKLLESGGGLVQPGGSLKLSCAASGFDFSRYWMSWVRQAPGKGLEWIGEINPDSSTINYTPSLKDKFIISRDNAKNTLFLQMSKVRSEDTALYYCARPSYDGYYGYAMDYWGQGTSVTVSS
VL: DIVLTQSPASLAVSLGQRATISCRASESVDSYGKSFMHWYQQKPGQPPKLLIYRASNLESGIPARFSGSGSRTDFTLTINPVEADDVATYYCQQSNEDPYTFGGGTKLEIKR
notes: Biotinylated 1.7E10 (mouse IgG1,k) conjugated to streptavidin-saporin (SAv-ZAP)
As to B8, in experiment [7], the “% Positive for TIM3” value was determined as 99.3% and the “GeoMean (Intensity of TIM3 binding)” value was found to be 436.

B9: 6.14B9-Biotin (antibody, V domains shown)
VH: DVQLQESGPGLVKPSQSLSLTCTVTGYSITSDYAWNWIRQFPGNKLEWMGYISYSGSISYNPSLKSRISITRDTSKNQFFLQLNSVTTEDTATYYCARSGRLRRDFDYWGQGTTLT
VL: DIQMTQSPSSLSASLGERVSLTCRASQEISGYLSWLQQKPDGTIKRLIYAASTLDSGVPKRFSGSRSGSDYSLTISSLESEDFADYYCLQYASYPLTFGAGTKLELK
notes: 6.14B9 (mouse IgG1,k) biotinylated
On to B9, for which, in experiment [7], the “% Positive for TIM3” value came out at 48.2% and the “GeoMean (Intensity of TIM3 binding)” value came out at 20.4.

B10: 6.14B9-BZAP (antibody, V domains shown)
VH: DVQLQESGPGLVKPSQSLSLTCTVTGYSITSDYAWNWIRQFPGNKLEWMGYISYSGSISYNPSLKSRISITRDTSKNQFFLQLNSVTTEDTATYYCARSGRLRRDFDYWGQGTTLT
VL: DIQMTQSPSSLSASLGERVSLTCRASQEISGYLSWLQQKPDGTIKRLIYAASTLDSGVPKRFSGSRSGSDYSLTISSLESEDFADYYCLQYASYPLTFGAGTKLELK
notes: Biotinylated 6.14B9 (mouse IgG1,k) conjugated to streptavidin-saporin (SAv-ZAP)
In the case of B10, in experiment [7], the “% Positive for TIM3” value was 43.9% and the “GeoMean (Intensity of TIM3 binding)” value stood at 22.5.

B11: 27.12E12-Biotin (antibody, V domains shown)
VH: EVQLQQSGAELVRPGALVKLSCKASGFNIKDYYMYWMKQRPEQGLEWIGWIDPENVKTIYDPKFQGRATLTADTSSNTAYLQLSSLTSEDTAVYYCTRDFGYVGFFDVWGAGTTVTVSS
VL: DIVMTQSQKFMSTSVGDRVSVNCKASQNVGTNVVWYQQKPGQSPKALIYSASYRYSGVPDRFTGSGSGTDFTLTISTVQSEDLAEYFCQQYNSYPLTFGGGTKLEIKR
notes: 27.12E12 (mouse IgG2b,k) biotinylated
As for B11, in experiment [7], the “% Positive for TIM3” value is 96.8% and the “GeoMean (Intensity of TIM3 binding)” value amounted to 202.

B12: 27.12E12-BZAP (antibody, V domains shown)
VH: EVQLQQSGAELVRPGALVKLSCKASGFNIKDYYMYWMKQRPEQGLEWIGWIDPENVKTIYDPKFQGRATLTADTSSNTAYLQLSSLTSEDTAVYYCTRDFGYVGFFDVWGAGTTVTVSS
VL: DIVMTQSQKFMSTSVGDRVSVNCKASQNVGTNVVWYQQKPGQSPKALIYSASYRYSGVPDRFTGSGSGTDFTLTISTVQSEDLAEYFCQQYNSYPLTFGGGTKLEIKR
notes: Biotinylated 27.12E12 (mouse IgG2b,k) conjugated to streptavidin-saporin (SAv-ZAP)
On to B12, for which, in experiment [7], the “% Positive for TIM3” value amounted to 98.8% and the “GeoMean (Intensity of TIM3 binding)” value was determined as 268.

B13: 9.1G12 (antibody, V domains shown)
VH: EVMLVESGGGLVKPGGSLKLSCAASGFTFSSYAMSWVRQTPERKLEWVATISSGGTYTYYPDSVKGRFTISRDNAKNRLYLQMSGLRSEGTAMYYCVRPDYTHDDGGFAYWGQGTLVTVSA
VL: QAVVTQESALTTSPGETVTLTCRSSTGAVTTSNYANWVQEKPDHLFTGLIGGTNNRAPGVPARFSGSLIGDKAALTITGAQTEDEAIYFCALWYSNHWVFGGGTKLTVL
notes: also called 9.1G12.8
Turning to B13, the “IL-6 release from activated CD4+ T cells (ELISA), antibody at 5 ug/ml” value in experiment [3] is more than 2 fold reduction. In addition, the “percentage of cell binding” value in experiment [4] was 14%. Further, the percent binding in experiment [5] worked out at 0.67%; in experiment [6], 0.23%.

B14: 9.1G12.8-Biotin (antibody, V domains shown)
VH: EVMLVESGGGLVKPGGSLKLSCAASGFTFSSYAMSWVRQTPERKLEWVATISSGGTYTYYPDSVKGRFTISRDNAKNRLYLQMSGLRSEGTAMYYCVRPDYTHDDGGFAYWGQGTLVTVSA
VL: QAVVTQESALTTSPGETVTLTCRSSTGAVTTSNYANWVQEKPDHLFTGLIGGTNNRAPGVPARFSGSLIGDKAALTITGAQTEDEAIYFCALWYSNHWVFGGGTKLTVL
notes: 9.1G12 (mouse IgG2b,l) biotinylated
Take B14: in experiment [7], the “% Positive for TIM3” value worked out at 55.4% and the “GeoMean (Intensity of TIM3 binding)” value came to 23.1.

B15: 9.1G12.8-BZAP (antibody, V domains shown)
VH: EVMLVESGGGLVKPGGSLKLSCAASGFTFSSYAMSWVRQTPERKLEWVATISSGGTYTYYPDSVKGRFTISRDNAKNRLYLQMSGLRSEGTAMYYCVRPDYTHDDGGFAYWGQGTLVTVSA
VL: QAVVTQESALTTSPGETVTLTCRSSTGAVTTSNYANWVQEKPDHLFTGLIGGTNNRAPGVPARFSGSLIGDKAALTITGAQTEDEAIYFCALWYSNHWVFGGGTKLTVL
notes: Biotinylated 9.1G12 (mouse IgG2b,l) conjugated to streptavidin-saporin (SAv-ZAP); also called 9.1G12-BZAP
For the molecule B15, in experiment [7], the “% Positive for TIM3” value was determined as 97.4% and the “GeoMean (Intensity of TIM3 binding)” value is 168.

For the origin of these results see patent US20150086574A1 (CELLERANT THERAPEUTICS, published 2015).
